Values quoted from earlier work in publication PMC3839795.

Target: Asp3 (position 2, ----SDNKTYG)
Test: NMR
Details: free peptide in solution (details not stated)

For SDNKTYG [Heptapeptide derived from turkey ovomucoid third domain (OMTKY3) (Meleagris gallopavo)], which pKa is on record?
The pKa was “about 3.6”.
